target: T1, ENL YEATS domain (AviSUMO-ENL YEATS) (Homo sapiens, UniProt Q03111); experiment: Phage panning of BuK-containing 7-mer library against AviSUMO-ENL YEATS with Illumina NGS abundance; details: sheet ENLR3: round 3 of panning against ENL YEATS; TAG = amber codon (BuK); 7-mer library positions V1-V7
T1 construct: encoding ENL YEATS (aa 1−148) was cloned in pET28a-; made in house; host or cells: E. coli BL21(DE3pLysS), co-expressed with BirA (pBirAcm)
T1 sequence (Q03111 1-148): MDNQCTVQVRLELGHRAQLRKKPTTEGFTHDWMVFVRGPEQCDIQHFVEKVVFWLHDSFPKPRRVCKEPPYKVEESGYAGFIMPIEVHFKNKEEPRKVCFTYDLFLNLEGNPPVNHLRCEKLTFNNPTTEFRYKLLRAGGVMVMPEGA
Description: We utilized a previously established amber-obligate 7-mer phage display library to develop a phage display library enriched with BuK-containing 7-mer peptides. For detailed characterizations, including analysis of amber codon percentages, NNK trinucleotide analysis, and amino acid distribution at each position within the library, please refer to the work of Tharp et al.[10] Furthermore, the comprehensive raw NGS data for the amber-obligate 7-mer phage library can be found in the NCBI’s Sequence Read Archive, under the accession ID PRJNA606283. To produce the BuK-containing 7-mer phage library, the phages were produced in the presence of 5 mM BuK using TOP10 cells harboring the following three plasmids: (1) pADL-gIII, which contains the 7-mer amber-obligate peptide-coding DNA library positioned at the N-terminus of M13 pIII gene; (2) pCDF-BuKRS, which encodes BuKRS and its cognate tRNA^Pyl for the genetic incorporation of BuK at amber codons in the 7-mer library; and (3) M13KO7TAA, a helper phage plasmid engineered to have a TAA mutation at pIII so that its lack of a functional pIII allows an efficient multivalent display of the 7-mer library. The ENL YEATS domain containing an N-terminal AviSUMO-Tag was recombinantly expressed in E. coli together with BirA, a biotin ligase, for site-specific biotinylation at the AviTag. The biotinylated AviSUMO-ENL YEATS was immobilized on streptavidin-coated magnetic beads for panning with the BuK-containing phages. […] Phage libraries collected from the first and third rounds of selection were sequenced using Illumina next generation sequencing (NGS) and all sequenced data are available through the NCBI SRA database (Project PRJNA1041845). To prevent possible sequencing errors from affecting conclusions, sequences were filtered using previously published paired-end processing,[10] where any sequences containing more than one mismatch in the nonlibrary region or any mismatch in the library region were discarded. The NGS data provided DNA sequences encompassing both the library and nonlibrary regions. In our analysis, we included data from the nonlibrary region as a stringent quality control measure to filter out low-quality data. For our analysis, we utilized 51 nucleotides from the NGS output, with 21 nucleotides encoding the library region and an additional 30 nucleotides for the nonlibrary region. […] Among all the sequences, only 85 of them contained more than 100 copies (blue area), while the remaining sequences all had low abundances (<10^2 copies, dark and light gray areas), which constituted 85.2% of the first round population. After three panning rounds, the selection converged to two highly enriched sequences: YDVYCYX (ENL-S1) and WWIIEXG (ENL-S2, X denotes BuK). Out of 551 different unique sequences collected from the third round, ENL-S1 and ENL-S2 represented 85% of the entire library (Figure 2A and Figures S6–S8). Both peptide sequences corresponded to their own unique DNA sequence, rather than there being varying codons encoding the same amino acids (Figure S7). […] Two motifs were found in the majority of sequences with high abundance (greater than 0.1%) (Figure S6). A Y(C/L)Y pattern was identified in the residues adjacent to BuK in four of the eight top sequences. Also, an H(L/Y)(T/V)LFXG (X denotes BuK) motif was observed, albeit at lower abundances, in two of the top sequences. In the initial round of selection, we observed that only a small percentage of phages were eluted, which aligns with typical outcomes in phage selection experiments since only a low copy number of phages can bind to the target.[10],[45] With each successive round of selection, we noted a gradual increase in the percentage of phages eluted. This incremental, rather than sharp, increase was attributed to the intensification of selection pressures, such as the application of more stringent washing protocols. We aimed for the incremental increase to retain potent clones with low copy numbers from the previous selection cycle. […]

Substance | n (number of NGS reads of the unique amino acid sequence) | percent (share of sequence reads) [%]
SVIYCYTAG | 9 | 0.008196
SWIIETAGG | 5 | 0.004553
SWILWTAGG | 8 | 0.007285
SWYITFTAG | 79 | 0.07194
TAGCGPRTAGD | 3 | 0.002732
TAGTLWNVG | 2 | 0.001821
TAGTVTFWY | 3 | 0.002732
TAGVMSLYS | 2 | 0.001821
TAGWIIETAGG | 6 | 0.005464
TAIFCYTAG | 3 | 0.002732
VYCYTAGVW | 3 | 0.002732
WCGPRTAGD | 2 | 0.001821
WCIIETAGG | 19 | 0.0173
WFILYTAGD | 25 | 0.02277
WLIIETAGD | 2 | 0.001821
WLIIETAGG | 30 | 0.02732
WNCLYTAGD | 4 | 0.003642
WQDTTAGTY | 2 | 0.001821
WRIIETAGG | 9 | 0.008196
WSIIETAGG | 3 | 0.002732

Substance | n (number of NGS reads of the unique amino acid sequence) | percent (share of sequence reads) [%]
WTAGIIETAGG | 4 | 0.003642
WTVYCYTAG | 3 | 0.002732
WWIIDTAGG | 29 | 0.02641
WWIIEKG | 2 | 0.001821
WWIIEQG | 2 | 0.001821
WWIIETAGD | 23 | 0.02094
WWIIETAGE | 10 | 0.009106
WWIIETAGG | 33339 | 30.359
WWIIETAGR | 6 | 0.005464
WWIIETAGV | 16 | 0.01457
WWIIETAGW | 27 | 0.02459
WWIIEWG | 3 | 0.002732
WWIIEYG | 29 | 0.02641
WWIIGTAGG | 6 | 0.005464
WWIIKTAGG | 9 | 0.008196
WWIITAGTAGG | 19 | 0.0173
WWIIVTAGG | 4 | 0.003642
WWIVETAGG | 6 | 0.005464
WWTIETAGG | 2 | 0.001821
WWVAGPTAG | 70 | 0.06374

same assay, conditions: sheet ENLR3: round 3 of selection against ENL YEATS; TAG = amber codon (BuK)

Substance | n (number of NGS reads of the 7-mer sequence V1-V7) | percent (share of NGS reads of the 7-mer sequence V1-V7) [%]
STTAGKLFI | 1 | 0.0009106
STVYCYTAG | 1 | 0.0009106
SWSITFTAG | 1 | 0.0009106
TAGAFFCIL | 1 | 0.0009106
TAGCGPRYD | 1 | 0.0009106
TAGDVYCYTAG | 1 | 0.0009106
TAGGSWVPI | 1 | 0.0009106
TAGKDQLWN | 1 | 0.0009106
TAGMVHIMV | 1 | 0.0009106
TAGNVCGTV | 1 | 0.0009106
TAGSFLYSF | 1 | 0.0009106
TAGSGVASC | 1 | 0.0009106
TAGSSIITC | 1 | 0.0009106
TAGTYYVCR | 1 | 0.0009106
TAGVFALVI | 1 | 0.0009106
VATAGMWPC | 1 | 0.0009106
VWVSTAGMT | 1 | 0.0009106
WCFMVFL | 1 | 0.0009106
WFIYTAGGC | 1 | 0.0009106
WLAWRHL | 1 | 0.0009106
WWFIETAGG | 1 | 0.0009106
WWIFETAGG | 1 | 0.0009106
WWIIATAGG | 1 | 0.0009106
WWIIELG | 1 | 0.0009106
WWILETAGG | 1 | 0.0009106
WWINETAGG | 1 | 0.0009106
WWITETAGG | 1 | 0.0009106
